From patent publication EP4011904A1 (Bayer Aktiengesellschaft, dated 2022)
Positions of bridges follow the written chain, without caps; N, C: chain ends.

Assays:
Test in all cases: cell-based or functional assay
[1] = target: T1, recombinant human MASP1 (amino acids 297-699, C-terminal His Tag) (human, UniProt P48740 297-699)
T1 sequence: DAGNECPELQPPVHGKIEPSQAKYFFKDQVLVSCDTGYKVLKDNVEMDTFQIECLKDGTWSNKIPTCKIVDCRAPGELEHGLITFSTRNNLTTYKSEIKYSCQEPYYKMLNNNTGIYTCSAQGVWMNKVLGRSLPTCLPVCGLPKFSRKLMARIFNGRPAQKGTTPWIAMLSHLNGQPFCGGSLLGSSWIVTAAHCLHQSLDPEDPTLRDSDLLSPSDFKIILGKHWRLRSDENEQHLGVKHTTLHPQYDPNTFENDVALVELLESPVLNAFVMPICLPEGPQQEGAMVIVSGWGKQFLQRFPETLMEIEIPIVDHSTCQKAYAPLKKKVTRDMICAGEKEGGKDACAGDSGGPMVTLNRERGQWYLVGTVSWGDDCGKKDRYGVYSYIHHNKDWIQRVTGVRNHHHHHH

[2] = target: recombinant human MASP2 (amino acids 297-686, C-terminal His Tag) (human, UniProt O00187 297-686)
[3] = target: recombinant rat MASP2 (amino acids 296-685, C-terminal His Tag) (rat, UniProt Q9JJS8 296-685)
[4] = target: T2, recombinant rat MASP1 (amino acids 302-704, C-terminal His Tag) (rat, UniProt Q8CHN8 302-704)
T2 sequence: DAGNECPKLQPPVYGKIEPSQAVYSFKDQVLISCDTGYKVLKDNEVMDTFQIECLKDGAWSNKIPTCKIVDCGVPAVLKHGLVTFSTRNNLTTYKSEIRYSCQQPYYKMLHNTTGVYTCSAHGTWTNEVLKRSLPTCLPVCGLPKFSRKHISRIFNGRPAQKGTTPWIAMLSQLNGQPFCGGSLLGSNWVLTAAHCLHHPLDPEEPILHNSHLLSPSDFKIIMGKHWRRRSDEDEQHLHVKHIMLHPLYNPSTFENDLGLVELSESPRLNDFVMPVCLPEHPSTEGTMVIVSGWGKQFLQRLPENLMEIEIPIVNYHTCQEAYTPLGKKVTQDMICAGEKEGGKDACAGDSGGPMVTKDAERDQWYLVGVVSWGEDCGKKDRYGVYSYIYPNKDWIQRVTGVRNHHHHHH

recombinant human MASP2 (amino acids 297-686, C-terminal His Tag), sequence (O00187 other isoform, or with tags, fused parts or gaps limits assumed, form in doubt): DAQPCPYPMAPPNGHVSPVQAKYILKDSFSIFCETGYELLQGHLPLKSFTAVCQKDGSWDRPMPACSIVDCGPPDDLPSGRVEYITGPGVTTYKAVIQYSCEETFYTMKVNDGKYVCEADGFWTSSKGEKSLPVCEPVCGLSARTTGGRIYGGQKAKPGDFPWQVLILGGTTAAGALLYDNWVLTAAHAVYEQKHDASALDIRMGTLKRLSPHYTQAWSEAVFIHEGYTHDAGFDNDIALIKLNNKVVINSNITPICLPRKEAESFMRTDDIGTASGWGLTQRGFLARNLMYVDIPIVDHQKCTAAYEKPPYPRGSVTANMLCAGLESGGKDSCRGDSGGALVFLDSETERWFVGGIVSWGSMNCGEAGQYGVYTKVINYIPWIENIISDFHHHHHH
recombinant rat MASP2 (amino acids 296-685, C-terminal His Tag), sequence (Q9JJS8 other isoform, or with tags, fused parts or gaps limits assumed, form in doubt): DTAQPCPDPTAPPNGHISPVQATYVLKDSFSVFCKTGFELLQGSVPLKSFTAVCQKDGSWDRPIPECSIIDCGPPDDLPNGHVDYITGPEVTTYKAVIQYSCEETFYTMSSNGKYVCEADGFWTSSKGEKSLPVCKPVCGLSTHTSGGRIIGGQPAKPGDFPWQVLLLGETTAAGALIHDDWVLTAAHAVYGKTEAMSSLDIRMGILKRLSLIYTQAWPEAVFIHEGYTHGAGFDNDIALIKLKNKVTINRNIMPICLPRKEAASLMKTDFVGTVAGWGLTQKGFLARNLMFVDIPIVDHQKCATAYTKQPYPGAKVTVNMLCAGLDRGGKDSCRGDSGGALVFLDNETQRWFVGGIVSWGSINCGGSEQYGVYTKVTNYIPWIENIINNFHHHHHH

Binder: cyclo(GRCTKSIPPICFPD) (disulfide 3-11; also: TFA salt) [Bicyclic SFTI-1: G**RC+TKSIPPIC+FPD**]
- human MASP1 IC50 [1]: > 3000 nM
- human MASP2 IC50 [2]: > 3000 nM
- rat MASP2 IC50 [3]: 1000 nM
- rat MASP1 IC50 [4]: 1000 nM
